# Where “and” joins values, the source holds several entries; their conditions need not be identical. Equal entries are not always repeated.
# Assays:
# [1] = target: Δ123A7-S chimera (H77c E2 Δ123 with 7 Cys-to-Ala mutations fused to the N terminus of DHBV S antigen) (hepatitis C virus genotype 1a, H77c | duck hepatitis B virus) (UniProt P27958); test: co-sedimentation + other: quantitative Western blot; gradient-purified VLP preparations; amount and proportion of E2 and S within VLPs quantified with Image Studio software; 4 consecutive preps
# [2] = target: RBDA7-S chimera (H77c E2 RBD with 7 Cys-to-Ala mutations fused to the N terminus of DHBV S antigen) (hepatitis C virus genotype 1a, H77c | duck hepatitis B virus) (UniProt P27958); test: as above
substance,measurement,setting,value
duck hepatitis B virus (DHBV) small surface antigen (S) (natural protein),stoichiometry N (mol S per mol Δ123A7-S),[1],2 and 4
same,stoichiometry N (mol S per mol RBDA7-S),[2],4 and 10 and 7

# From publication PMC8906423
